Laboratory results taken from patent US20230212549A1 (3B PHARMACEUTICALS, published 2023).
Numbered stars: 1 amine (or outer) side, 2 acyl side, 3 side chain; on linkers, the order of the positions; unused ones are H or OH. Bridge positions count the residues as written; N and C are the ends. Square brackets hold non-standard residues; d marks the D form. Primed or numbered codes have the meaning given here. * marks the point of attachment. tMeBn(DOTA-PP) = 1,3,5-trimethylbenzylidene, two thioethers to Cys, third CH2 bound to one N of piperazine whose other N bears DOTA, O=C(O)CN1CCN(CC(=O)O)CCN(CC(=O)N2CCN(Cc3cc(C[*:1])cc(C[*:2])c3)CC2)CCN(CC(=O)O)CC1; tMeBn(DOTA-PP)″ = trimethylbenzylidene (tMeBn) bridge between the two Cys thiols, whose remaining connection point carries a DOTA chelator via a PP linker; Ttds″ = 1,13-diamino-4,7,10-trioxatridecan-succinamic acid spacer, O=C(CCC(=O)[*:2])NCCCOCCOCCOCCCN[*:1]; DOTA = O=C(O)CN1CCN(CC(=O)O)CCN(CC(=O)*)CCN(CC(=O)O)CC1; mXylylene = c1cc(C[*:1])cc(C[*:2])c1; Pentanesulfonyl = CCCCCS(=O)(=O)*; 3Amb = NCc1cccc(C(=O)O)c1; 4Amb = NCc1ccc(C(=O)O)cc1; Nphe = O=C(O)CNCc1ccccc1; Hexanoyl = CCCCCC(=O)*; Nleu = CC(C)CNCC(=O)O; Nlys = NCCCCNCC(=O)O; GABA = NCCCC(=O)O; Sar = CNCC(=O)O

These binders were tested against T1, Recombinant human FAP (R&D systems, #3715-SE) (human, UniProt Q12884 26-760) (assay: SPR (Biacore T200), FAP captured on anti-FAP antibody, single cycle kinetics).
T1 construct: bought; in SPR captured on immobilized anti-FAP antibody MAB3715; also called rhFAP; human recombinant FAP
T1 sequence (Q12884 26-760 limits assumed): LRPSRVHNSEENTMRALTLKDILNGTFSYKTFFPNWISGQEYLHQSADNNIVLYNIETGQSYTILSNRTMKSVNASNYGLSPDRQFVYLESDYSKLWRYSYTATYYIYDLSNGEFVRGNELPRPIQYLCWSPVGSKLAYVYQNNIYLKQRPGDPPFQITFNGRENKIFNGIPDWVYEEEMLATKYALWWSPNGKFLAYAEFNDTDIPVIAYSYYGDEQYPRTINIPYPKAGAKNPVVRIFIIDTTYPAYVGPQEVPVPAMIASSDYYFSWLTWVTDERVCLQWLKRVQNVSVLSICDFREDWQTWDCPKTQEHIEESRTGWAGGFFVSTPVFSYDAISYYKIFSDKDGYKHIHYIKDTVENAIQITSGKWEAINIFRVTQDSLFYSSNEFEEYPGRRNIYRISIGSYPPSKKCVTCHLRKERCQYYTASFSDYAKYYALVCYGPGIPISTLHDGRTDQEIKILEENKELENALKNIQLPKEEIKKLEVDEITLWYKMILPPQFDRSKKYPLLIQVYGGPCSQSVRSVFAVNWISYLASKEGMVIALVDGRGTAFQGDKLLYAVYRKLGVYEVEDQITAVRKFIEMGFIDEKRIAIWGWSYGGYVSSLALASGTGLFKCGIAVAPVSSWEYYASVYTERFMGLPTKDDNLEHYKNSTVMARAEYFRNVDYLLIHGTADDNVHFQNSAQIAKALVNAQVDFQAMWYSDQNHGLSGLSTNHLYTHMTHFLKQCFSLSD

Binder	pKD Category [pKD]
Hexanoyl-CPPTEFCD[GABA]R-NH2 (linker 1-7 via mXylylene; SMILES CCCCCC(=O)N[C@H]1CSCc2cccc(c2)CSC[C@@H](C(=O)N[C@@H](CC(=O)O)C(=O)NCCCC(=O)N[C@@H](CCCNC(=N)N)C(N)=O)NC(=O)[C@H](Cc2ccccc2)NC(=O)[C@H](CCC(=O)O)NC(=O)[C@H]([C@@H](C)O)NC(=O)[C@@H]2CCCN2C(=O)[C@@H]2CCCN2C1=O, also called 3BP-3300) [Hex-[Cys(3MeBn)-Pro-Pro-Thr-Glu-Phe-Cys]-Asp-Gab-Arg-NH2]	> 8
Hexanoyl-CPPTQFCD[Ttds″]K(DOTA)-NH2 (linker 1-7 via mXylylene; SMILES CCCCCC(=O)N[C@H]1CSCc2cccc(c2)CSC[C@@H](C(=O)N[C@@H](CC(=O)O)C(=O)NCCCOCCOCCOCCCNC(=O)CCC(=O)N[C@@H](CCCCNC(=O)CN2CCN(CC(=O)O)CCN(CC(=O)O)CCN(CC(=O)O)CC2)C(N)=O)NC(=O)[C@H](Cc2ccccc2)NC(=O)[C@H](CCC(N)=O)NC(=O)[C@H]([C@@H](C)O)NC(=O)[C@@H]2CCCN2C(=O)[C@@H]2CCCN2C1=O, also called 3BP-3395) [Hex-[Cys(3MeBn)-Pro-Pro-Thr-Gln-Phe-Cys]-Asp-Ttds-Lys(DOTA)-NH2]	> 8
Hexanoyl-CPPTQFCG-OH (linker 1-7 via tMeBn(DOTA-AET), also called 3BP-3656) [Hex-[Cys(tMeBn(DOTA-AET))-Pro-Pro-Thr-Gln-Phe-Cys]-Gly-OH]	> 8
Hexanoyl-CPPTQFCS-OH (linker 1-7 via tMeBn(DOTA-AET), also called 3BP-3658) [Hex-[Cys(tMeBn(DOTA-AET))-Pro-Pro-Thr-Gln-Phe-Cys]-Ser-OH]	> 8
Hexanoyl-CPPTQFCD-OH (linker 1-7 via tMeBn(DOTA-AET), also called 3BP-3665) [Hex-[Cys(tMeBn(DOTA-AET))-Pro-Pro-Thr-Gln-Phe-Cys]-Asp-OH]	> 8
Hexanoyl-CPPTEFCD[3Amb]R-NH2 (linker 1-7 via mXylylene; SMILES CCCCCC(=O)N[C@H]1CSCc2cccc(c2)CSC[C@@H](C(=O)N[C@@H](CC(=O)O)C(=O)NCc2cccc(C(=O)N[C@@H](CCCNC(=N)N)C(N)=O)c2)NC(=O)[C@H](Cc2ccccc2)NC(=O)[C@H](CCC(=O)O)NC(=O)[C@H]([C@@H](C)O)NC(=O)[C@@H]2CCCN2C(=O)[C@@H]2CCCN2C1=O, also called 3BP-3324) [Hex-[Cys(3MeBn)-Pro-Pro-Thr-Glu-Phe-Cys]-Asp-Mamb-Arg-NH2]	> 8
Hexanoyl-C[Sar]PTQFC-OH (linker 1-7 via tMeBn(DOTA-AET), also called 3BP-3678) [Hex-[Cys(tMeBn(DOTA-AET))-Nmg-Pro-Thr-Gln-Phe-Cys]-OH]	> 8
Hexanoyl-CPPTEFCD[4Amb]R-NH2 (linker 1-7 via mXylylene; SMILES CCCCCC(=O)N[C@H]1CSCc2cccc(c2)CSC[C@@H](C(=O)N[C@@H](CC(=O)O)C(=O)NCc2ccc(C(=O)N[C@@H](CCCNC(=N)N)C(N)=O)cc2)NC(=O)[C@H](Cc2ccccc2)NC(=O)[C@H](CCC(=O)O)NC(=O)[C@H]([C@@H](C)O)NC(=O)[C@@H]2CCCN2C(=O)[C@@H]2CCCN2C1=O, also called 3BP-3301) [Hex-[Cys(3MeBn)-Pro-Pro-Thr-Glu-Phe-Cys]-Asp-Pamb-Arg-NH2]	> 8
Pentanesulfonyl-CPPTQFCD-NH2 (linker 1-7 via mXylylene; SMILES CCCCCS(=O)(=O)N[C@H]1CSCc2cccc(c2)CSC[C@@H](C(=O)N[C@@H](CC(=O)O)C(N)=O)NC(=O)[C@H](Cc2ccccc2)NC(=O)[C@H](CCC(N)=O)NC(=O)[C@H]([C@@H](C)O)NC(=O)[C@@H]2CCCN2C(=O)[C@@H]2CCCN2C1=O, also called 3BP-3514) [Pentyl-SO2-[Cys(3MeBn)-Pro-Pro-Thr-Gln-Phe-Cys]-Asp-NH2]	> 8
Hexanoyl-CPPTQFCD-NH2 (linker 1-7 via tMeBn(InDOTA-PP); also: In complex (InDOTA), also called 3BP-3590) [Hex-[Cys(tMeBn(InDOTA-PP))-Pro-Pro-Thr-Gln-Phe-Cys]-Asp-NH2]	> 8
CPPTQFX (not fully specified; N-term Hex; X7 = AET; Cys1/AET7 thioether-cyclised via tMeBn(InDOTA-AET), also called 3BP-3713) [Hex-[Cys(tMeBn(InDOTA-AET))-Pro-Pro-Thr-Gln-Phe-AET]]	> 8

Continued, values first:

pKD Category [pKD]	Binder
> 8	Hexanoyl-CPPTQFCD-NH2 (linker 1-7 via tMeBn(GaDOTA-PP); also: Ga complex (GaDOTA), also called 3BP-3592) [Hex-[Cys(tMeBn(GaDOTA-PP))-Pro-Pro-Thr-Gln-Phe-Cys]-Asp-NH2]
> 8	CPPTQFX (not fully specified; N-term Hex; X7 = AET; Cys1/AET7 thioether-cyclised via tMeBn(DOTA-AET), also called 3BP-3654) [Hex-[Cys(tMeBn(DOTA-AET))-Pro-Pro-Thr-Gln-Phe-AET]]
> 8	Hexanoyl-CPPTEFCD[Ttds″]K(DOTA)-NH2 (linker 1-7 via mXylylene; SMILES CCCCCC(=O)N[C@H]1CSCc2cccc(c2)CSC[C@@H](C(=O)N[C@@H](CC(=O)O)C(=O)NCCCOCCOCCOCCCNC(=O)CCC(=O)N[C@@H](CCCCNC(=O)CN2CCN(CC(=O)O)CCN(CC(=O)O)CCN(CC(=O)O)CC2)C(N)=O)NC(=O)[C@H](Cc2ccccc2)NC(=O)[C@H](CCC(=O)O)NC(=O)[C@H]([C@@H](C)O)NC(=O)[C@@H]2CCCN2C(=O)[C@@H]2CCCN2C1=O, also called 3BP-3396) [Hex-[Cys(3MeBn)-Pro-Pro-Thr-Glu-Phe-Cys]-Asp-Ttds-Lys(DOTA)-NH2]
> 8	Hexanoyl-CPPTQFCD-NH2 (linker 1-7 via tMeBn(LuDOTA-PP); also: Lu complex (LuDOTA), also called 3BP-3591) [Hex-[Cys(tMeBn(LuDOTA-PP))-Pro-Pro-Thr-Gln-Phe-Cys]-Asp-NH2]
> 8	CPPTQFCD (N-term Hex; Cys1/Cys7 thioether-cyclised via tMeBn(DOTA-AET); D-Asp at 8; C-term amide, also called 3BP-3681) [Hex-[Cys(tMeBn(DOTA-AET))-Pro-Pro-Thr-Gln-Phe-Cys]-asp-NH2]
> 8	Pentanesulfonyl-CPPTQFCD-NH2 (linker 1-7 via tMeBn(DOTA-PP)″, also called 3BP-3692) [Pentyl-SO2-[Cys(tMeBn(DOTA-PP))-Pro-Pro-Thr-Gln-Phe-Cys]-Asp-NH2]

Each binder was assayed against T1, Recombinant human FAP (R&D systems, …) (assay: cell-based or functional assay).

pIC50 Category (Activity) [pIC50]	Binder
≤ 6	Hexanoyl-C[Nphe]PTQFC-NH2 (linker 1-7 via mXylylene; SMILES CCCCCC(=O)N[C@H]1CSCc2cccc(c2)CSC[C@@H](C(N)=O)NC(=O)[C@H](Cc2ccccc2)NC(=O)[C@H](CCC(N)=O)NC(=O)[C@H]([C@@H](C)O)NC(=O)[C@@H]2CCCN2C(=O)CN(Cc2ccccc2)C1=O) [Hex-[Cys(3MeBn)-Nphe-Pro-Thr-Gln-Phe-Cys]-NH2]
≤ 6	Hexanoyl-CPTPFQCD-NH2 (linker 1-7 via tMeBn(DOTA-PP); SMILES CCCCCC(=O)N[C@H]1CSCc2cc(cc(CN3CCN(C(=O)CN4CCN(CC(=O)O)CCN(CC(=O)O)CCN(CC(=O)O)CC4)CC3)c2)CSC[C@@H](C(=O)N[C@@H](CC(=O)O)C(N)=O)NC(=O)[C@H](CCC(N)=O)NC(=O)[C@H](Cc2ccccc2)NC(=O)[C@@H]2CCCN2C(=O)[C@H]([C@@H](C)O)NC(=O)[C@@H]2CCCN2C1=O) [Hex-[Cys(tMeBn(DOTA-PP))-Pro-Thr-Pro-Phe-Gln-Cys]-Asp-NH2]
≤ 6	Hexanoyl-C[Nlys]PTQFC-NH2 (linker 1-7 via mXylylene; SMILES CCCCCC(=O)N[C@H]1CSCc2cccc(c2)CSC[C@@H](C(N)=O)NC(=O)[C@H](Cc2ccccc2)NC(=O)[C@H](CCC(N)=O)NC(=O)[C@H]([C@@H](C)O)NC(=O)[C@@H]2CCCN2C(=O)CN(CCCCN)C1=O) [Hex-[Cys(3MeBn)-Nlys-Pro-Thr-Gln-Phe-Cys]-NH2]
≤ 6	Hexanoyl-C[Nleu]PTQFC-NH2 (linker 1-7 via mXylylene; SMILES CCCCCC(=O)N[C@H]1CSCc2cccc(c2)CSC[C@@H](C(N)=O)NC(=O)[C@H](Cc2ccccc2)NC(=O)[C@H](CCC(N)=O)NC(=O)[C@H]([C@@H](C)O)NC(=O)[C@@H]2CCCN2C(=O)CN(CC(C)C)C1=O) [Hex-[Cys(3MeBn)-Nleu-Pro-Thr-Gln-Phe-Cys]-NH2]
